# According to paper PMC10057847, “Precision engineering of biological function with large-scale measurements and machine learning” (PLOS ONE, 2023):
# Substitutions are numbered along the chain they refer to. Names and notes keep the numbering of the source. Values joined by “and” are separate entries in the source; they are usually repeats but may differ in a detail not shown here. Identical values can stand only once.
# B1: pVER-IPTG-001: LacI variant: Q55H D130E V192A T258I D267N Y273H N333I (protein, UniProt P03023 1-360, looked up, variant Q55H D130E V192A T258I D267N Y273H N333I)
# Lactose operon repressor: MKPVTLYDVAEYAGVSYQTVSRVVNQASHVSAKTREKVEAAMAELNYIPNRVAQHLAGKQSLLIGVATSSLALHAPSQIVAAIKSRADQLGASVVVSMVERSGVEACKAAVHNLLAQRVSGLIINYPLDEQDAIAVEAACTNVPALFLDVSDQTPINSIIFSHEDGTRLGVEHLVALGHQQIALLAGPLSSASARLRLAGWHKYLTRNQIQPIAEREGDWSAMSGFQQTMQMLNEGIVPTAMLVANDQMALGAMRAIIESGLRVGANISVVGHDDTEDSSCYIPPLTTIKQDFRLLGQTSVDRLLQLSQGQAVKGNQLLPVSLVKRKTTLAPITQTASPRALADSLMQLARQVSRLESGQ
# B2: pVER-IPTG-WT(V136E/G200C): LacI variant: V136E G200C (protein, UniProt P03023 1-360, looked up, variant V136E G200C)
# Lactose operon repressor: B1 Lactose operon repressor with H55Q, E130D, V136E, A192V, G200C, I258T, N267D, H273Y, I333N
# B3: pVER-IPTG-084: LacI variant: A92I S269T N333H L346* (protein, UniProt P03023 1-360, looked up, variant A92I S269T N333H L346*)
# Lactose operon repressor: MKPVTLYDVAEYAGVSYQTVSRVVNQASHVSAKTREKVEAAMAELNYIPNRVAQQLAGKQSLLIGVATSSLALHAPSQIVAAIKSRADQLGISVVVSMVERSGVEACKAAVHNLLAQRVSGLIINYPLDDQDAIAVEAACTNVPALFLDVSDQTPINSIIFSHEDGTRLGVEHLVALGHQQIALLAGPLSSVSARLRLAGWHKYLTRNQIQPIAEREGDWSAMSGFQQTMQMLNEGIVPTAMLVANDQMALGAMRAITESGLRVGADITVVGYDDTEDSSCYIPPLTTIKQDFRLLGQTSVDRLLQLSQGQAVKGNQLLPVSLVKRKTTLAPHTQTASPRALADSMQLARQVSRLESGQ
# B4: pVER-IPTG-WT(Q181H): LacI variant: Q181H (protein, UniProt P03023 1-360, looked up, variant Q181H)
# Lactose operon repressor: B1 Lactose operon repressor with H55Q, E130D, Q181H, A192V, I258T, N267D, H273Y, I333N
# B5: pVER-IPTG-WT(S190C): LacI variant: S190C (protein, UniProt P03023 1-360, looked up, variant S190C)
# Lactose operon repressor: B1 Lactose operon repressor with H55Q, E130D, S190C, A192V, I258T, N267D, H273Y, I333N
# B6: pVER-IPTG-WT(N208Y): LacI variant: N208Y (protein, UniProt P03023 1-360, looked up, variant N208Y)
# Lactose operon repressor: B1 Lactose operon repressor with H55Q, E130D, A192V, N208Y, I258T, N267D, H273Y, I333N
# B7: pVER-IPTG-WT(Q231R): LacI variant: Q231R (protein, UniProt P03023 1-360, looked up, variant Q231R)
# Lactose operon repressor: B1 Lactose operon repressor with H55Q, E130D, A192V, Q231R, I258T, N267D, H273Y, I333N
# B8: pVER-IPTG-WT(V271M): LacI variant: V271M (protein, UniProt P03023 1-360, looked up, variant V271M)
# Lactose operon repressor: B1 Lactose operon repressor with H55Q, E130D, A192V, I258T, N267D, V271M, H273Y, I333N
# B9: pVER-IPTG-WT(S279T/V136E): LacI variant: V136E S279T (protein, UniProt P03023 1-360, looked up, variant V136E S279T)
# Lactose operon repressor: B1 Lactose operon repressor with H55Q, E130D, V136E, A192V, I258T, N267D, H273Y, S279T, I333N
# B10: pVER-IPTG-WT(V136E): LacI variant: V136E (protein, UniProt P03023 1-360, looked up, variant V136E)
# Lactose operon repressor: B1 Lactose operon repressor with H55Q, E130D, V136E, A192V, I258T, N267D, H273Y, I333N
# B11: pVER-IPTG-WT: wild-type LacI (lac repressor) on the pVER plasmid (protein, UniProt P03023 1-360, looked up)
# Lactose operon repressor: B1 Lactose operon repressor with H55Q, E130D, A192V, I258T, N267D, H273Y, I333N
# B12: pVER-IPTG-004(V136E): LacI variant: A87P V136E V301M E357G (protein, UniProt P03023 1-360, looked up, variant A87P V136E V301M E357G)
# Lactose operon repressor: MKPVTLYDVAEYAGVSYQTVSRVVNQASHVSAKTREKVEAAMAELNYIPNRVAQQLAGKQSLLIGVATSSLALHAPSQIVAAIKSRPDQLGASVVVSMVERSGVEACKAAVHNLLAQRVSGLIINYPLDDQDAIAEEAACTNVPALFLDVSDQTPINSIIFSHEDGTRLGVEHLVALGHQQIALLAGPLSSVSARLRLAGWHKYLTRNQIQPIAEREGDWSAMSGFQQTMQMLNEGIVPTAMLVANDQMALGAMRAITESGLRVGADISVVGYDDTEDSSCYIPPLTTIKQDFRLLGQTSMDRLLQLSQGQAVKGNQLLPVSLVKRKTTLAPNTQTASPRALADSLMQLARQVSRLGSGQ
# B13: pVER-IPTG-WT(S70R/V271M): LacI variant: S70R V271M (protein, UniProt P03023 1-360, looked up, variant S70R V271M)
# Lactose operon repressor: B12 Lactose operon repressor with S70R, P87A, E136V, V271M, M301V, G357E
# B14: pVER-IPTG-008: LacI variant: S61L I237T T258S A266T I289F R351* (protein, UniProt P03023 1-360, looked up, variant S61L I237T T258S A266T I289F R351*)
# Lactose operon repressor: MKPVTLYDVAEYAGVSYQTVSRVVNQASHVSAKTREKVEAAMAELNYIPNRVAQQLAGKQLLLIGVATSSLALHAPSQIVAAIKSRADQLGASVVVSMVERSGVEACKAAVHNLLAQRVSGLIINYPLDDQDAIAVEAACTNVPALFLDVSDQTPINSIIFSHEDGTRLGVEHLVALGHQQIALLAGPLSSVSARLRLAGWHKYLTRNQIQPIAEREGDWSAMSGFQQTMQMLNEGTVPTAMLVANDQMALGAMRAISESGLRVGTDISVVGYDDTEDSSCYIPPLTTFKQDFRLLGQTSVDRLLQLSQGQAVKGNQLLPVSLVKRKTTLAPNTQTASPRALADSLMQLAQVSRLESGQ
# B15: pVER-IPTG-WT(Q291L): LacI variant: Q291L (protein, UniProt P03023 1-360, looked up, variant Q291L)
# Lactose operon repressor: B12 Lactose operon repressor with P87A, E136V, Q291L, M301V, G357E
# B16: pVER-IPTG-081: LacI variant: P285S V301M S308P M347V (protein, UniProt P03023 1-360, looked up, variant P285S V301M S308P M347V)
# Lactose operon repressor: B12 Lactose operon repressor with P87A, E136V, P285S, S308P, M347V, G357E
# Tested on: eYFP under the control of the lactose operator (lacO)
# Assay: in vivo dose-response curves of LacI variants to IPTG measured with flow cytometry (eYFP output), fit to the Hill equation
# Format: cell-based, E. coli
# Conditions: IPTG 0.0 μmol/L, clone A
# Protocol: Dose-response curves were measured with flow cytometry using E. coli MG1655Δlac transformed with variants of the pVER plasmid, described previously. The plasmid contained different variants of the lacI coding DNA sequence (CDS), as described in the text, and an expression cassette with enhanced yellow fluorescent protein (eYFP) under the control of the lactose operator (lacO). The lacI CDS was verified with Sanger sequencing for each variant.
# All cultures were grown in a rich M9 media (3 g/L KH2PO4, 6.78 g/L Na2HPO4, 0.5 g/L NaCl, 1 g/L NH4Cl, 0.1 mmol/L CaCl2, 2 mmol/L MgSO4, 4% glycerol, and 20 g/L casamino acids) supplemented with 50 μg/mL kanamycin.
# For flow cytometry measurements, E. coli cultures were grown in a laboratory automation system that included an automated liquid handler (Hamilton, STAR), an automated plate sealer (4titude, a4S), an automated de-sealer (Brooks, XPeel), and two multi-mode plate readers (BioTek, Neo2SM).
# Cultures were grown in clear polystyrene 96-well plates with 1.1 mL square wells (4titude, 4ti-0255). The culture volume per well was 0.5 mL. Before incubation, each 96-well growth plate was sealed by the automated plate sealer with a gas permeable membrane (4titude, 4ti-0598). Growth plates were incubated in one of the multi-mode plate readers at 37°C with a 1°C gradient applied from the bottom to the top of the incubation chamber to minimize condensation on the inside of the membrane. The plate readers were set for double-orbital shaking at 807 cycles per minute. Optical density at 600 nm (OD600) was measured every 5 minutes during incubation, with continuous shaking applied between measurements (optical density at 700 nm and YFP fluorescence were also measured every 5 minutes). After incubation, the automated de-sealer was used to remove the gas-permeable membrane from each 96-well plate to enable automated passaging of cultures and sample preparation for flow cytometry measurements.
# For each measurement, starter cultures were prepared from glycerol freezer stock in 5 mL of rich M9 media in a 14 mL snap-cap culture tubes. Starter cultures were incubated at 37°C with orbital shaking at 300 rpm for between 4 h and 24 h prior to loading the automation system. The automation system then prepared 96-well growth plates, sealed and de-sealed the growth plates, incubated the growth plates, and prepared flow cytometry sample plates. The automated culture protocol consisted of the following steps: […]
row,Molecule,geo_mean: geometric mean of the YFP signal measured by cytometry
1,B1,26059.303161112988 and 23664.3303473106

# Same assay, conditions: IPTG 2.0 μmol/L, clone A
row,Molecule,geo_mean: geometric mean of the YFP signal measured by cytometry
1,B1,26140.44981266789

# Same assay, conditions: IPTG 4.0 μmol/L, clone A
row,Molecule,geo_mean: geometric mean of the YFP signal measured by cytometry
1,B1,26093.69376618197

# Same assay, conditions: IPTG 8.0 μmol/L, clone A
row,Molecule,geo_mean: geometric mean of the YFP signal measured by cytometry
1,B1,26130.45714766927

# Same assay, conditions: IPTG as ligand, Hill fit of cytometry data, posterior mean; read-out: log_ec50: the base-10 logarithm of EC50 (converted)
row,Molecule,EC50 [nM]
1,B2,2480
2,B3,1520

# Same assay, conditions: IPTG dose-response by flow cytometry
row,Molecule,dose-response phenotype (in words)
1,B4,silent in wild-type background
2,B5,silent in wild-type background
3,B6,silent in wild-type background
4,B7,silent in wild-type background
5,B8,silent in wild-type background
6,B2,band-stop dose-response curve
7,B9,more complicated non-monotonic dose-response (high-low-high-low)
8,B10,reduced G∞ but G0 and EC50 similar to the wild type

# Same assay, conditions: IPTG dose-response, Hill fit of cytometry data
row,Molecule,n: the Hill coefficient
1,B2,2.118
2,B11,1.559
3,B12,1.631
4,B13,1.459
5,B14,1.488
6,B3,1.53

# Same assay, conditions: basal output
row,Molecule,G0 [MEF]
1,B11,158

# Same assay, conditions: basal output, Hill fit of cytometry data, posterior mean; value is log10
row,Molecule,log_g0: the base-10 logarithm of G0 (in MEF) [MEF]
1,B2,3.294
2,B11,2.097
3,B12,4.54
4,B14,4.293
5,B3,3.264

# Same assay, conditions: saturating output, Hill fit of cytometry data, posterior mean; value is log10
row,Molecule,log_ginf: the base-10 logarithm of G∞ (in MEF) [MEF]
1,B2,4.168
2,B11,4.44
3,B15,4.407
4,B12,1.925
5,B13,4.268
6,B14,3.274
7,B16,4.489
8,B3,4.457
